First the molecules themselves.
B1: POMT2 (parent)
chain: YHEAPMTRKHYQVTGYGINGTGDS
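Further: lentivirally expressed fusions sorted by FACS into six bins by GFP to DsRed ratio, PSI derived from sequencing read proportions per bin multiplied by bin number.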

The variants in the data set derive from B1. Kind of data set: protein stability index of a GFP-peptide fusion (GPS, HEK-293T) (PSI 1-6); higher = more stable. The note with it: c terminus: a fixed tail appended.
For the variant YHEAPMTRKHYQVTCYGINGTGDS [G15C], the protein stability index is 2.01. Then YHEAPMTRKHYQVTPYGINGTGDS [G15P], with 2.86; and YHEAPMTRKHYQVTHYGINGTGDS [G15H], with 2.63; and YHEAPMTRKHYQVTLYGINGTGDS [G15L], with 1.51. Then YHEAPMTRKHYQVTEYGINGTGDS [G15E], with 3.36; and YHEAPMTRKHYQVTSYGINGTGDS [G15S], with 2.14; and YHEAPMTRKHYQVTTYGINGTGDS [G15T], with 2.78. Then YHEAPMTRKHYQVTVYGINGTGDS [G15V], with 1.44; and YHEAPMTRKHYQVTRYGINGTGDS [G15R], with 2.02; and YHEAPMTRKHYQVTQYGINGTGDS [G15Q], with 1.88. Consider YHEAPMTRKHYQVTAYGINGTGDS [G15A], for which the protein stability index stood at 2.25.

For YHEAPMTRKHYQVTMYGINGTGDS [G15M], the protein stability index worked out at 2.03. Regarding YHEAPMTRKHYQVTNYGINGTGDS [G15N], the protein stability index is 2.04. For the variant YHEAPMTRKHYQVTWYGINGTGDS [G15W], the protein stability index is 2.28. Then YHEAPMTRKHYQVTYYGINGTGDS [G15Y], with 2.44; and YHEAPMTRKHYQVTIYGINGTGDS [G15I], with 1.59. Then YHEAPMTRKHYQVTKYGINGTGDS [G15K], with 2.71; and YHEAPMTRKHYQVTFYGINGTGDS [G15F], with 1.19. Then YHEAPMTRKHYQVTGYGINGHGDS [T21H], with 2.23. For YHEAPMTRKHYQVTGYGINGPGDS [T21P], the protein stability index was 2.25. Then YHEAPMTRKHYQVTGYGINGVGDS [T21V], with 1.37; and YHEAPMTRKHYQVTGYGINGCGDS [T21C], with 2.4. For YHEAPMTRKHYQVTGYGINGMGDS [T21M], the protein stability index was found to be 2.01.

Consider YHEAPMTRKHYQVTGYGINGQGDS [T21Q], for which the protein stability index turned out to be 2.12.

For the variant YHEAPMTRKHYQVTGYGINGNGDS [T21N], the protein stability index was 2.58.

As to YHEAPMTRKHYQVTGYGINGRGDS [T21R], the protein stability index is 2.6. Then YHEAPMTRKHYQVTGYGINGLGDS [T21L], with 2.1; and YHEAPMTRKHYQVTGYGINGAGDS [T21A], with 2.56.

As to YHEAPMTRKHYQVTGYGINGIGDS [T21I], the protein stability index was 1.37. Then YHEAPMTRKHYQVTGYGINGYGDS [T21Y], with 1.76.

In the case of YHEAPMTRKHYQVTGYGINGGGDS [T21G], the protein stability index was 1.83.

With YHEAPMTRKHYQVTGYGINGFGDS [T21F], the protein stability index amounted to 2.11. Then YHEAPMTRKHYQVTGYGINGSGDS [T21S], with 2.19; and YHEAPMTRKHYQVTGYGINGEGDS [T21E], with 2.04; and YHEAPMTRKHYQVTGYGINGWGDS [T21W], with 2.15.

On to YHEAPMTRKHYQVTGYGINGKGDS [T21K], for which the protein stability index worked out at 2.3. Then YHEAPMTRKHYQVTGYGINGDGDS [T21D], with 2.46; and YHEAPMTRKHYQVTGYGINLTGDS [G20L], with 2.21; and YHEAPMTRKHYQVTGYGINDTGDS [G20D], with 2.18.

YHEAPMTRKHYQVTGYGINMTGDS [G20M]: the protein stability index was found to be 1.98. As to YHEAPMTRKHYQVTGYGINATGDS [G20A], the protein stability index came out at 2.45. Then YHEAPMTRKHYQVTGYGINTTGDS [G20T], with 2.43; and YHEAPMTRKHYQVTGYGINCTGDS [G20C], with 1.86. Then YHEAPMTRKHYQVTGYGINHTGDS [G20H], with 2.26. Regarding YHEAPMTRKHYQVTGYGINITGDS [G20I], the protein stability index turned out to be 2.03. Take YHEAPMTRKHYQVTGYGINYTGDS [G20Y]: the protein stability index was determined as 2.39. YHEAPMTRKHYQVTGYGINPTGDS [G20P]: the protein stability index worked out at 2.24. Regarding YHEAPMTRKHYQVTGYGINQTGDS [G20Q], the protein stability index stood at 2.43. For the variant YHEAPMTRKHYQVTGYGINETGDS [G20E], the protein stability index is 2.4.

With YHEAPMTRKHYQVTGYGINWTGDS [G20W], the protein stability index was 2.12. YHEAPMTRKHYQVTGYGINFTGDS [G20F]: the protein stability index came out at 2.35. Then YHEAPMTRKHYQVTGYGINRTGDS [G20R], with 2.16; and YHEAPMTRKHYQVTGYGINNTGDS [G20N], with 2.47.

Take YHEAPMTRKHYQVTGYGINVTGDS [G20V]: the protein stability index turned out to be 1.98. With YHEAPMTRKHYQVTGYGINKTGDS [G20K], the protein stability index is 2.08. Then YHEAPMTRKHYQVTGYGINSTGDS [G20S], with 2.36. As to YHEAPMTRKHYQVTGYGGNGTGDS [I18G], the protein stability index was 2.2. Then YHEAPMTRKHYQVTGYGTNGTGDS [I18T], with 2.42; and YHEAPMTRKHYQVTGYGFNGTGDS [I18F], with 2.47. YHEAPMTRKHYQVTGYGYNGTGDS [I18Y]: the protein stability index turned out to be 2.07. Then YHEAPMTRKHYQVTGYGHNGTGDS [I18H], with 2.47; and YHEAPMTRKHYQVTGYGENGTGDS [I18E], with 2.95; and YHEAPMTRKHYQVTGYGMNGTGDS [I18M], with 2.3. Then YHEAPMTRKHYQVTGYGCNGTGDS [I18C], with 2.37; and YHEAPMTRKHYQVTGYGKNGTGDS [I18K], with 2.78; and YHEAPMTRKHYQVTGYGNNGTGDS [I18N], with 2.42.

Turning to YHEAPMTRKHYQVTGYGSNGTGDS [I18S], the protein stability index worked out at 2.22. Then YHEAPMTRKHYQVTGYGQNGTGDS [I18Q], with 2.9; and YHEAPMTRKHYQVTGYGPNGTGDS [I18P], with 2.36. Then YHEAPMTRKHYQVTGYGDNGTGDS [I18D], with 2.9; and YHEAPMTRKHYQVTGYGANGTGDS [I18A], with 2.73; and YHEAPMTRKHYQVTGYGLNGTGDS [I18L], with 2.64.

As for YHEAPMTRKHYQVTGYGVNGTGDS [I18V], the protein stability index was 2.21.

As for YHEAPMTRKHYQVTGYGRNGTGDS [I18R], the protein stability index came out at 2.55. Regarding YHEAPMTRKHYQVTGYGWNGTGDS [I18W], the protein stability index was found to be 1.67. Take YHEAPMTRKHYQVTGQGINGTGDS [Y16Q]: the protein stability index turned out to be 2.26. Then YHEAPMTRKHYQVTGFGINGTGDS [Y16F], with 1.75. Take YHEAPMTRKHYQVTGAGINGTGDS [Y16A]: the protein stability index amounted to 2.48. Then YHEAPMTRKHYQVTGTGINGTGDS [Y16T], with 2.53. In the case of YHEAPMTRKHYQVTGSGINGTGDS [Y16S], the protein stability index was 2.67. Then YHEAPMTRKHYQVTGHGINGTGDS [Y16H], with 2.79.

In the case of YHEAPMTRKHYQVTGMGINGTGDS [Y16M], the protein stability index turned out to be 2.3.

As to YHEAPMTRKHYQVTGIGINGTGDS [Y16I], the protein stability index is 2.47. Turning to YHEAPMTRKHYQVTGPGINGTGDS [Y16P], the protein stability index worked out at 2.92.

Take YHEAPMTRKHYQVTGLGINGTGDS [Y16L]: the protein stability index turned out to be 1.97. Then YHEAPMTRKHYQVTGVGINGTGDS [Y16V], with 2.47; and YHEAPMTRKHYQVTGNGINGTGDS [Y16N], with 2.43; and YHEAPMTRKHYQVTGDGINGTGDS [Y16D], with 3.66. Then YHEAPMTRKHYQVTGGGINGTGDS [Y16G], with 2.9; and YHEAPMTRKHYQVTGKGINGTGDS [Y16K], with 3.2. Then YHEAPMTRKHYQVTGCGINGTGDS [Y16C], with 2.51. With YHEAPMTRKHYQVTGWGINGTGDS [Y16W], the protein stability index amounted to 1.75.

In the case of YHEAPMTRKHYQVTGRGINGTGDS [Y16R], the protein stability index was found to be 3.36.

With YHEAPMTRKHYQVTGEGINGTGDS [Y16E], the protein stability index came to 3.3.

The values are drawn from the supplement of paper PMC10567573.
